The experiment has as its target fusion protein consisting of apoB17 and the receptor binding domain of apoB ("B17(B69-79)"). Put plainly: cell-based or functional assay.

Turning to “ligand binding domain of the LDL receptor ("soluble LDL receptor") (from UniProt P01130 22-354)”, the secretion of the fusion protein turned out to be 10 fold.
